From patent EP2058006A1

Key:
[1] = target: CC-chemokine receptor CCR5 on the cell surface (UniProt P51681)
[2] = target: CC-chemokine receptor CCR5 on the cell surface (UniProt P51681); assay: flow cytometry on PHA/IL-2-stimulated PBMC
[3] = target: CC-chemokine receptor CCR5 on the cell surface (UniProt P51681); assay: cell-based or functional assay
[4] = target: CC-chemokine receptor CCR5 on the cell surface (UniProt P51681); assay: flow cytometry on L1.2-CCR5+ cells, saturating mAb, PE anti-mouse IgG
[5] = target: CC-chemokine receptor CCR5 on the cell surface (UniProt P51681); assay: flow cytometry on PHA/IL-2-stimulated PBMC, mean fluorescence intensity

UniProt P51681, sequence (P51681 whole entry): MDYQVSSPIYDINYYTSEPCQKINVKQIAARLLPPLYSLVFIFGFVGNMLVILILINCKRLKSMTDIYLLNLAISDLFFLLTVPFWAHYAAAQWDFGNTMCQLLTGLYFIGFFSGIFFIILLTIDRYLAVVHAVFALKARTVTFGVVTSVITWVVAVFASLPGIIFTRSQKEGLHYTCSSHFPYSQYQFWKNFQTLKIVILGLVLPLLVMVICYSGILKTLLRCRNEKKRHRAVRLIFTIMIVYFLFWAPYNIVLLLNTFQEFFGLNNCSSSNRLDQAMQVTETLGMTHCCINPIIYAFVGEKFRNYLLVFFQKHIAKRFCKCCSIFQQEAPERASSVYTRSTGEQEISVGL

anti-CCR5 mAb 2D7 (Pharmingen) (antibody)
IC50 [1]: 1.38 µg/mL | % of PBMC stained [2]: > 20% | IC50, inhibition of JR-FL entry (luciferase reporter virus, U87MG-CD4+CCR5+ cells) [3]: 0.026 µg/mL | IC50, inhibition of cell-cell fusion (RET assay, PM1 and HeLa-EnvJR-FL+ cells) [3]: 1.6 µg/mL | K (equal to the IC50), inhibition of cell-cell fusion, median effect fit (RET assay) [3]: 0.36 µg/mL | % of L1.2-CCR5+ cells stained [4]: > 90%

anti-CCR5 monoclonal antibody PA14 (ATCC Accession No. HB-12610)
IC50 [1]: 1.58 µg/mL | % of PBMC stained [2]: > 20% | fold difference in m.f.i. against PA9 [5]: 7 fold | IC50, inhibition of JR-FL entry (luciferase reporter virus, U87MG-CD4+CCR5+ cells) [3]: 0.024 µg/mL | IC50, inhibition of cell-cell fusion (RET assay, PM1 and HeLa-EnvJR-FL+ cells) [3]: 1.7 µg/mL | IC50 for inhibition of RANTES-induced calcium influx in L1.2-CCR5+ cells [3]: 50 µg/mL | ratio of the PA14 IC50 to the 2D7 IC50, RANTES-induced calcium influx [3]: 8 fold | % of L1.2-CCR5+ cells stained [4]: > 90%
